The supplement of paper PMC10724198
± gives the standard deviation of the averaged measurements.

Test system: Saccharomyces cerevisiae
Experiment: protein stability index of tFT-peptide fusion (C-terminal peptide) (PSI (0-1 scale)); higher = more stable (slower turnover)
Conditions: genetic background: wild type; temperature: 30 C
Procedure: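 Multiplexed protein stability (MPS) profiling in S. cerevisiae. Random 12-aa peptides (tFT-X12 library) are fused to the C-terminus of a sfGFP-mCherry tandem fluorescent timer, after mCherry and a GGGS linker. Cells are FACS-sorted into 8 mCherry/sfGFP bins and deep-sequenced. The protein stability index (PSI) is the read-weighted bin average, scaled from 0 (unstable) to 1 (stable). Only peptides with >10 reads are reported; cells were grown at 30 °C in SC-His with glucose.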
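Further: PSI is a weighted mean of sequencing reads over stability bins, variants kept only with over 10 reads, mCherry proximal and sfGFP distal, peptide attached via GGGS linker.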

| Sequence | protein stability index |
| --- | --- |
| CPRLWGGRLLMR | 0.5867 ± 0.003 |
| CPRWHDCLACIE | 0.665 ± 0.011 |
| CPSLSALNHPLV | 0.701 ± 0.021 |
| CPYIFLLSLGNT | 0.651 ± 0.017 |
| CQLCTDPLIDLL | 0.667 ± 0.03 |
| CQNLVCRCCLWI | 0.6423 ± 0.0059 |
| CQRHGTKIHRRR | 0.736 ± 0.053 |
| CQTRTKAKKTQV | 0.727 ± 0.0083 |
| CQVDGTMLCSEC | 0.652 ± 0.02 |
| CQVVALYCFSLL | 0.62 ± 0.068 |
| CRAAAGMVVWHG | 0.6835 ± 0.0056 |
| CRATYVGTGGRG | 0.656 ± 0.016 |
| CRFRFGFNFSSF | 0.581 ± 0.075 |
| CRGVGGRTVING | 0.692 ± 0.032 |
| CRNSTKFAVLRE | 0.654 ± 0.012 |
| CRPVHVNLPFYF | 0.5884 ± 0.00092 |
| CRRCRIHSGIYD | 0.672 ± 0.034 |
| CRRLLIHTALRV | 0.582 ± 0.015 |
| CRRPPWRFSFPF | 0.767 ± 0.021 |
| CRSGSVGGIRGR | 0.679 ± 0.011 |
| CSFHPSSVSLYS | 0.555 ± 0.027 |
| CSFSRRLCHRPT | 0.701 ± 0.013 |
| CSHSLFASCSSL | 0.695 ± 0.021 |
| CSIVGLGACVSW | 0.669 ± 0.0083 |
| CSLCILSWTFPS | 0.6464 ± 0.0026 |
| CSLSRFLGCWGF | 0.668 ± 0.062 |

| Sequence | protein stability index |
| --- | --- |
| CSMSGPLIIIAR | 0.58339 ± 0.00021 |
| CSPSDCGWQLVL | 0.604 ± 0.09 |
| CSRFPGSVRVVS | 0.615 ± 0.012 |
| CSRSPASAPRPH | 0.688 ± 0.018 |
| CSSLPPFPALPR | 0.701 ± 0.026 |
| CSSTTFADRRFM | 0.753 ± 0.062 |
| CTAPIASWKRVL | 0.694 ± 0.029 |
| CTCLHSSGVRHT | 0.692 ± 0.047 |
| CTSSVRARRRFR | 0.698 ± 0.043 |
| CVFSCLLATVFL | 0.533 ± 0.026 |
| CVGARLYMVRDR | 0.724 ± 0.046 |
| CVGFCLGKCTMS | 0.732 ± 0.014 |
| CVIESIEQCLSR | 0.716 ± 0.045 |
| CVLAPPHRRAPS | 0.699 ± 0.031 |
| CVLLGSTIPAIV | 0.645 ± 0.043 |
| CWVRGLEYCSIW | 0.676 ± 0.028 |
| CYGAYLVSQWGS | 0.697 ± 0.028 |
| DACWWVDDGGVV | 0.719 ± 0.051 |
| DAGLCGCCGVIG | 0.666 ± 0.057 |
| DALGRSTKGGHW | 0.689 ± 0.024 |
| DARGTVVEIRPG | 0.72 ± 0.19 |
| DAVRRSSLSLAT | 0.711 ± 0.16 |
| DCFSFVASSSFC | 0.7696 ± 0.004 |
| DCIAFVPRDRRS | 0.614 ± 0.012 |
| DCREALLAKVYL | 0.627 ± 0.07 |
| DCRLPSLPPCVA | 0.648 ± 0.059 |

| Sequence | protein stability index |
| --- | --- |
| DCYSKLQSRKCG | 0.682 ± 0.018 |
| DDTSIVRRMQSP | 0.674 ± 0.014 |
| DEVRDTSGGTWA | 0.642 ± 0.02 |
| DFMGLRCSARKA | 0.693 ± 0.016 |
| DFPLISAHNTVC | 0.655 ± 0.033 |
| DFVESKVCSCSV | 0.666 ± 0.01 |
| DFVSQFSFQFGC | 0.713 ± 0.066 |
| DGGKRKQDSQKK | 0.683 ± 0.034 |
| DGKGLRATWQWS | 0.737 ± 0.037 |
| DGLGSSGCCLCW | 0.693 ± 0.038 |
| DGPGFNVCLRCK | 0.708 ± 0.017 |
| DGPRPPRPSPVP | 0.699 ± 0.04 |
| DGPWGGVRAGEV | 0.717 ± 0.063 |
| DGRLNVCCYPSC | 0.689 ± 0.15 |
| DGSSESRSGTGK | 0.69 ± 0.057 |
| DGTLTAKVIETF | 0.66 ± 0.058 |
| DGTSKDSKWYMN | 0.747 ± 0.088 |
| DGVGRLADGRGI | 0.688 ± 0.013 |
| DGVGVPGCGRVG | 0.734 ± 0.075 |
| DGVWVRCGTLGF | 0.715 ± 0.078 |
| DHCRTQHLGLEM | 0.725 ± 0.015 |
| DHGVRASSRATG | 0.692 ± 0.015 |
| DHHGGTEPHRVP | 0.7079 ± 0.0052 |
| DICCGLCGLLPR | 0.658 ± 0.079 |
| DIGGLGYCDCVK | 0.758 ± 0.054 |
| DIGGTDYDPAIS | 0.7138 ± 0.0017 |

| Sequence | protein stability index |
| --- | --- |
| DIHLSRQKTRIL | 0.752 ± 0.17 |
| DIKKSTKGQNQQ | 0.602 ± 0.025 |
| DILCRILLRPKG | 0.63 ± 0.031 |
| DIRFSAARRPTG | 0.6627 ± 0.0053 |
| DIRKAEISANFC | 0.59434 ± 2.4e-05 |
| DITQSRIHMTNI | 0.661 ± 0.055 |
| DKKEEEKKSTKH | 0.70302 ± 0.00026 |
| DKNDGNHKKKKN | 0.702 ± 0.017 |
| DKPVDTRPGSPG | 0.66 ± 0.031 |
| DKSHRKNKKKRN | 0.699 ± 0.0074 |
| DKYKIDKKSKRK | 0.683 ± 0.059 |
| DLATSVVYIVTV | 0.506 ± 0.0077 |
| DLDVVGEGSAGT | 0.683 ± 0.046 |
| DLFLTSSCPCLC | 0.55106 ± 4.5e-05 |
| DLGLEVVSFLKF | 0.741 ± 0.068 |
| DLPDGRRFIVIG | 0.682 ± 0.08 |
| DLPDLQPACPRF | 0.722 ± 0.019 |
| DLPSSPCSYFRR | 0.616 ± 0.034 |
| DLRVSLLSHLSL | 0.679 ± 0.11 |
| DLSAGKWSRSSD | 0.689 ± 0.023 |
| DLSAGPPFLLIR | 0.6717 ± 0.0038 |
| DLTGKGCIYMER | 0.702 ± 0.034 |
| DLVGSWMCGPDL | 0.691 ± 0.028 |
| DLVRGGNCVYGV | 0.66 ± 0.032 |
| DMAVYLVSVSRV | 0.609 ± 0.053 |
| DMCLSVIEQTAC | 0.6123 ± 0.0028 |

| Sequence | protein stability index |
| --- | --- |
| DMSQKSENKKLI | 0.689 ± 0.011 |
| DPLLYLCLGSQC | 0.676 ± 0.017 |
| DPLVDLCGPLSL | 0.717 ± 0.077 |
| DPPDPASIHLSF | 0.752 ± 0.0096 |
| DPRHDNRYPRVR | 0.617 ± 0.16 |
| DPTWIKKRPSIP | 0.666 ± 0.044 |
| DPVVSQLSSVPA | 0.656 ± 0.041 |
| DQAWYFVRLAGD | 0.766 ± 0.2 |
| DQIYEKQKIPST | 0.621 ± 0.0079 |
| DQLGARSGELLR | 0.697 ± 0.063 |
| DREGIELHKNKD | 0.658 ± 0.0072 |
| DREVGQGRLTEE | 0.6359 ± 0.0018 |
| DRGFSVGGGWGW | 0.676 ± 0.066 |
| DRGSLVASGGGG | 0.713 ± 0.015 |
| DRKWSPGSGVVD | 0.696 ± 0.051 |
| DRLGGVSQVNIQ | 0.751 ± 0.042 |
| DRPACVAHKLFS | 0.677 ± 0.0073 |
| DRRARTDEKKKK | 0.646 ± 0.01 |
| DRSLRLGSLTSG | 0.6 ± 0.017 |
| DRWGGRGDYRCI | 0.72 ± 0.019 |
| DSAVTPPTTCLP | 0.719 ± 0.028 |
| DSCQALIWLVFT | 0.586 ± 0.021 |
| DSETLLSKEWKQ | 0.651 ± 0.11 |
| DSFLLSSKICWT | 0.745 ± 0.0069 |
| DSFSEFDSSPVI | 0.727 ± 0.03 |
| DSLTNAELVFAC | 0.607 ± 0.0068 |

| Sequence | protein stability index |
| --- | --- |
| DSMGKVLLTCAN | 0.581 ± 0.0094 |
| DSPLAGALTEVD | 0.715 ± 0.04 |
| DSPPRATFSAPR | 0.69 ± 0.036 |
| DSPTGLKFTQSL | 0.634 ± 0.1 |
| DSRPLASAVRLS | 0.681 ± 0.017 |
| DSSFLPHLRLAP | 0.689 ± 0.053 |
| DSSRANRCISDR | 0.654 ± 0.046 |
| DTCWHELILAFS | 0.592 ± 0.087 |
| DTEYVFLYSSQE | 0.7029 ± 0.0051 |
| DTFVFSWGVGWG | 0.76 ± 0.041 |
| DTGLGSVVFVVF | 0.688 ± 0.036 |
| DTLFNRFLHTSI | 0.69 ± 0.046 |
| DVAPPFLSFFVV | 0.62 ± 0.011 |
| DVFVFHVLKKYP | 0.654 ± 0.025 |
| DVLDCTLVEQGA | 0.68 ± 0.035 |
| DVRPVWGMAGSE | 0.742 ± 0.12 |
| DVVFVARGRAND | 0.7002 ± 0.0037 |
| DWGRRGGALAVI | 0.641 ± 0.012 |
| DWLAFSYYFSVV | 0.599 ± 0.041 |
| EAEKTERCVIKG | 0.645 ± 0.027 |
| EAGGRWEVSCQA | 0.6133 ± 0.0017 |
| EAKKKRIDKKYE | 0.776 ± 0.068 |
| EALLWWGAWGVV | 0.769 ± 0.02 |
| EARFLWLTFLFG | 0.546 ± 0.068 |
| EARGPGPVGGGT | 0.702 ± 0.085 |
